Source: patent publication US12162934B2, “Gremlin-1 antagonist for the prevention and treatment of cancer” (UCB BIOPHARMA SRL, priority 2018, dated 2024)

How the values were obtained:
[1] = target: T1, rhGremlin-1 (Homo sapiens, UniProt O60565); assay: SMAD phosphorylation assay: restoration of p-SMAD signalling, lung fibroblasts from idiopathic pulmonary fibrosis patients; type: cell-based
T1 sequence (O60565 25-184): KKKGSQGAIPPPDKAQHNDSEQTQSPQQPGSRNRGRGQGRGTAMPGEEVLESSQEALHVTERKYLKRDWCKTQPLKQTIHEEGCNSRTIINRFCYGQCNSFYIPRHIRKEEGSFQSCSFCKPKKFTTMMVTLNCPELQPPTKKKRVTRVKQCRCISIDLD
Procedure: Antibodies were screened using the Hek-Id1 reporter gene assay described in Example 3 and by measuring SMAD phosphorylation. SMAD1, 5 and 8 are phosphorylated upon BMP signalling. Inhibitors of Gremlin-1 therefore increase SMAD phosphorylation.
SMAD phosphorylation assays were conducted on A549 cells or on human lung fibroblasts. Phosphorylation levels were determined using MSD.
Results are shown as a percentage of SMAD phosphorylation by BMP alone (control BMP). Experiments were performed using lung fibroblasts from idiopathic pulmonary fibrosis patients. rhGremlin-1 and the anti-Gremlin-1 antibodies were preincubated for 45 minutes at room temperature. rhGremlin-1 and the anti-Gremlin-1 antibodies were then added with BMP to the cells for 30 minutes.

[2] = target: T2, BMP-2-Gremlin-1 complexes (Homo sapiens, UniProt O60565); assay: SMAD phosphorylation assay: displacement of BMP-2 from Gremlin 1-BMP complexes; type: cell-based; conditions: for Displacement of BMP-2 from Gremlin 1-BMP complexes (SMAD phosphorylation): BMP 2 50 ng/ml
T2 sequence (O60565 25-184): T1 sequence (O60565 25-184)
Procedure: Experiments were again performed using lung fibroblasts from idiopathic pulmonary fibrosis patients. rhBMP-2 or rhBMP 4/7 were preincubated with rhGremlin-1 for 1 hour at room temperature. The BMP-2- or BMP4/7-Gremlin-1 complexes were incubated with different concentrations of the anti-Gremlin-1 antibodies overnight at 4° C. Antibody concentrations represent the final concentration on the plate.

[3] = system: mouse intestinal crypts; assay: Mouse intestinal organoid culture; type: cell-based; conditions: 1 mg/ml antibody added to fully supplemented EGR media
Description: Culture of mouse intestinal crypts. Mouse intestinal crypts were isolated and cultured as described by Sato et al (6). In brief, crypts were isolated, resuspended in Matrigel (BD Biosciences) and plated out in 24-well plates. The basal culture medium (advanced Dulbecco's modified Eagle medium/F12 supplemented with penicillin/streptomycin, 10 mmol/L HEPES, Glutamax, 1×N2, 1×B27 (all from Invitrogen), and 1 mmol/L N-acetylcysteine (Sigma)) was overlaid containing the following growth factors; Epidermal Growth Factor at 50 ng/ml (Life Technologies), Gremlin1 at 100 ng/ml (R and D), R-spondin1 at 500 ng/ml (R and D) [EGR media]. Anti-Grem1 antibody (UCB) was used at a concentration of 1 mg/ml. The media was changed every two days.
A mouse organoid culture was used to assess effects of an anti-GREM1 antibody. Successful intestinal epithelial organoid culture is dependent on media supplementation of exogenous BMP antagonist.
Approximately 60% of crypts formed organoids in media fully supplemented with recombinant epidermal growth factor (E), Grem1 (G) and R-Spondin1, (R) (EGR media). Culture success rate dropped to less than 2% at 7 days in media lacking recombinant Grem1 (ER media).

[4] = system: Apc^Min mice; assay: Apc^Min mouse polyposis model (survival); type: in vivo; conditions: for median survival: vehicle 192 days
[5] = system: Foxl1, Wnt5A and Wnt2B expression; assay: In situ hybridisation of Foxl1 and Wnt ligands in Vil1-Grem1 villus stroma; type: in vivo, mouse
Procedure: To investigate the source of Wnt ligand expression in the villus ectopic crypts in antibody treated and untreated Vil1-Grem1 mice (n=4) we used Foxl1 in situ hybridization (ISH) to identify sub-epithelial telocyte cells as described by Shoshkes-Carmel et al. (2018). Foxl1 expression levels were quantified using the HALO image analysis software.
Paraffin blocks were sectioned (thickness=[…]) using DEPC (Sigma) treated H2O and sections were baked for 2 hours at 60° C. Tissue was deparaffinised and treated with RNAscope Hydrogen Peroxide (ACD 322335) for 10 min at room temperature (RT). Antigen retrieval was performed for 15 minutes using RNAscope 1× Target Retrieval Reagents (1:10 ACD 322000) at 100° C. Samples were treated with RNAscope Protease Plus (ACD 322331) for 30 minutes at 40° C. using an HybEZ Hybridization System (ACD). Probes were incubated for 2 h at 40° C. Probes used were as follows: LGR4 (ACD 318321), LGR5 (ACD 312171), FZD5 (ACD 404911), FZD7 (ACD 534101), WNT2B (ACD 405031), WNT5A (ACD 316791), WNT5A-C3 (ACD, 316791-C3) and FOXL1 (ACD 407401). Slides were counter-stained using Haematoxylin […] or DAPI (Fluorescent).
Slides were scanned at 20× magnification using an Aperio CS2 Digital Pathology Scanner (Leica Biosystems). […] Foxl1 expression levels were quantified using the HALO image analysis platform (PerkinElmer) and expressed as % of DAB staining per area. […]

For “Ab7326: allosteric inhibitory anti-Gremlin-1 antibody from a naïve human library; CDRs SEQ ID NOS 4 to 9; mouse IgG1 in mouse experiments”, the “Restoration of p-SMAD signalling, percentage of SMAD phosphorylation by BMP alone” value ([1]; BMP 2 50 ng/ml) was 107.2%, the “Restoration of p-SMAD signalling, percentage of SMAD phosphorylation by BMP alone” value ([1]; BMP 4 25 ng/ml) was 110.0% and the “Restoration of p-SMAD signalling, percentage of SMAD phosphorylation by BMP alone” value ([1]; BMP4/7 50 ng/ml) was 127.0%. The “Restoration of p-SMAD signalling, percentage of SMAD phosphorylation by BMP alone” value ([1]; BMP 7 200 ng/ml) was 108.0%, the “Restoration of p-SMAD signalling, percentage of SMAD phosphorylation by BMP alone” value ([1]; BMP-2/7 50 ng/ml) was 128.5% and the “Displacement of BMP-2 from Gremlin 1-BMP complexes (SMAD phosphorylation)” value (“Displacement … (SMAD phosphorylation)” below) ([2]; antibody 0.63 μg/ml) was 97.0%. For the same substance, the “Displacement … (SMAD phosphorylation)” value ([2]; antibody 1.27 μg/ml) was 102.8%, the “Displacement … (SMAD phosphorylation)” value ([2]; antibody 2.55 μg/ml) was 103.2% and the “Displacement … (SMAD phosphorylation)” value ([2]; antibody 5.1 μg/ml) was 100.3%. For the same substance, the “Displacement … (SMAD phosphorylation)” value ([2]; antibody 10.2 μg/ml) was 103.8%, the “Displacement … (SMAD phosphorylation)” value ([2]; antibody 20.3 μg/ml) was 99.4% and the “Displacement … (SMAD phosphorylation)” value ([2]; antibody 40.6 μg/ml) was 101.5%. The “Displacement … (SMAD phosphorylation)” value ([2]; antibody 81.3 μg/ml) was 103.7%, the “Displacement of already complexed BMP from Gremlin 1-BMP complexes” value ([2]; BMP-2 or BMP4/7, at much lower concentrations than comparison antibody 2484) was “can displace already complexed BMP-2 or BMP4/7” and the “Intestinal organoid culture success” value [3] was “prevented successful intestinal organoid culture”. The median survival ([4]; early stage treatment (42 days), 30 mg/kg weekly) was 424.5 days, the median survival ([4]; established polyposis, 30 mg/kg weekly from 4 months) was 264.5 days and the median survival ([4]; late-stage treatment (120 days), 30 mg/kg weekly) was 261 days. The “Survival / polyp development” value ([4]; long term treatment initiated at 6 weeks of age) was “prolonged survival”, the “Stromal Wnt ligand (5A and 2B) expression (ISH)” value ([5]; antibody-treated Vil1-Grem1 mice) was “abrogated Wnt ligand expression” and the “Villus stromal Foxl1 expression (ISH)” value ([5]; antibody-treated Vil1-Grem1 vs WT p=0.4864) was “restored Foxl1 expression levels”.
